Measured values published in patent publication US20160346368A1.

Columns and labels:
[1] = molecular target: PVR-CD4TM-GFP (human); experiment: flow cytometry; HEK-293T cells transfected with PVR-CD4TM-GFP; CD226-Fc at 10 ug/ml; PE anti-human Fc
[2] = molecular target: PVR Q82K variant-CD4TM-GFP (human); experiment: flow cytometry; HEK-293T cells transfected with PVR Q82K variant-CD4TM-GFP; CD226-Fc at 10 ug/ml (heading of FIG. 8A); PE anti-human Fc
[3] = molecular target: PVR Q82K+S72N double variant-CD4TM-GFP (human); experiment: flow cytometry; HEK-293T cells transfected with PVR Q82K+S72N double variant-CD4TM-GFP; CD226-Fc at 10 ug/ml (heading of FIG. 8A); PE anti-human Fc
[4] = molecular target: PVR-CD4TM-GFP (human); experiment: flow cytometry; HEK-293T cells transfected with PVR-CD4TM-GFP; CD226-Fc at 1 ug/ml; PE anti-human Fc
[5] = molecular target: PVR S72N variant-CD4TM-GFP (human); experiment: flow cytometry; HEK-293T cells transfected with PVR S72N variant-CD4TM-GFP; CD226-Fc at 10 ug/ml; PE anti-human Fc
[6] = molecular target: PVR Q82K+S72N double variant-CD4TM-GFP (human); experiment: flow cytometry; HEK-293T cells transfected with PVR Q82K+S72N double variant-CD4TM-GFP; CD226-Fc at 1 ug/ml (heading of FIG. 8A); PE anti-human Fc
[7] = molecular target: PVR Q82K variant-CD4TM-GFP (human); experiment: flow cytometry; HEK-293T cells transfected with PVR Q82K variant-CD4TM-GFP; CD226-Fc at 1 ug/ml (heading of FIG. 8A); PE anti-human Fc
[8] = molecular target: PVR S72N variant-CD4TM-GFP (human); experiment: flow cytometry; HEK-293T cells transfected with PVR S72N variant-CD4TM-GFP; CD226-Fc at 1 ug/ml; PE anti-human Fc
[9] = molecular target: PVR S72N variant-CD4TM-GFP (human); experiment: flow cytometry; HEK-293T cells transfected with PVR S72N variant-CD4TM-GFP; PE anti-human Fc
[10] = molecular target: PVR Q82K variant-CD4TM-GFP (human); experiment: flow cytometry; HEK-293T cells transfected with PVR Q82K variant-CD4TM-GFP; PE anti-human Fc
[11] = molecular target: PVR Q82K+S72N double variant-CD4TM-GFP (human); experiment: flow cytometry; HEK-293T cells transfected with PVR Q82K+S72N double variant-CD4TM-GFP; PE anti-human Fc
[12] = molecular target: PVR-CD4TM-GFP (human); experiment: flow cytometry; HEK-293T cells transfected with PVR-CD4TM-GFP; Fc fusion detected with PE anti-human Fc; PE against FITC (GFP)

Chain of CD226-Fc (Q15762 19-254): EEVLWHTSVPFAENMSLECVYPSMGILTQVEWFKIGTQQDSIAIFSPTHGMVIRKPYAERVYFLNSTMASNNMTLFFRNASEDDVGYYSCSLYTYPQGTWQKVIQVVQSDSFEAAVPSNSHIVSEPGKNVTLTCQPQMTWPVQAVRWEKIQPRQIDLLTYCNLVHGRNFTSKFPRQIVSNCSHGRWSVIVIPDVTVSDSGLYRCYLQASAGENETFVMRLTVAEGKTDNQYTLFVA

MFI [1] | MFI [2] | MFI [3] | MFI [4] | MFI [5] | MFI [6] | MFI [7] | MFI [8] | MFI [9] | MFI [10] | MFI [11] | MFI [12] | Substance
409 | 521 | 93.3 | 205 | 104 | 17.9 | 247 | 16.5 | – | – | – | – | CD226-Fc (from UniProt Q15762 19-254) (Fc fusion)
– | – | – | – | – | – | – | – | 530 | 605 | 795 | 389 | TIGIT-Fc (from UniProt Q495A1 22-141) (Fc fusion)
